How the values were obtained:
human CD4 = target: T1, human CD4 (human, UniProt P01730 26-458); assay: FACS, clonal hybridoma supernatant on human PBMCs
T1 construct: whole, on cells; also called hCD4

[1] = target: T2, Recombinant human CD4 (R&D Systems, Cat. 10327-CD) (human, UniProt P01730 26-390, limits assumed); assay: BLI Octet, non-clonal supernatant on AMC sensor, 100 nM human CD4;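 note: hybridoma supernatants diluted 1:3, antibodies captured on AMC biosensors, association and dissociation with CD4 followed, curves smoothed and fit locally with 1:1 binding model for single-point kinetics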
T2 construct: Bought reagent; also called huCD4

[2] = target: T2, Recombinant human CD4 (R&D Systems, …); assay: BLI Octet, non-clonal supernatant on AMC sensor, 100 nM human CD4, 1:1 local fit;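 note: Single-concentration kinetics per supernatant, with the 1:1 model fitted across both the association and dissociation phases of the sensorgram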

| Binder | % CD4 Stain (human CD4) [%] | gMFI of CD4+ (human CD4) [gMFI] | Response [1] | Kd [2] [nM] | koff [2] [s⁻¹] | kon [2] [M⁻¹ s⁻¹] |
| --- | --- | --- | --- | --- | --- | --- |
| 75110_02K11A (antibody, V domains shown, Tested as clonal hybridoma supernatant (AlivaMab Mouse Kappa; anti-mouse Fc detection); also called Sib3.1) VH: QVQLQESGPGLVKPSQTLSLTCTVSGGSISSGFYYWTWIRQHPGKGLEWIGYISYSGNTYYNPSFKSRLTISVDTSKSQFSLKLSSVTAADTAVYYCARDRPSNFDAFDIWGQGTMVTVSS VL: not shown | 28.2 | 203000 | – | – | – | – |
| 75110_11D03A (antibody, V domains shown, Tested as non-clonal AlivaMab Mouse Kappa hybridoma supernatant, captured by anti-mouse IgG Fc sensor) VH: EVQLVESGGGLVQPGGSLRLSCAASGFTFSSYWMSWVRQAPGKGLEWVANINQDGNEKYYVDSVKGRFTISRDNAKNSLFLQMNSLRAEDTAVYYCAREGGQWLALDYWGQGALVTVSS VL: DIQMTQSPSSVSASVGDRVTITCRASQGISSWLAWYQQKPGKAPKFLISGASSLQSGVPSRFSGSGSGTDFTLTISSLQPEDFATYYCQQANSFPWTFGQGTKVEIK | – | – | 0.177 | 4.67 | 0.000524 | 112000 |
| 75110_02N15A (antibody, V domains shown, Tested as non-clonal AlivaMab Mouse Kappa hybridoma supernatant, captured by anti-mouse IgG Fc sensor) VH: EVQLVESGGGLVQPGGSLRLSCAASGFTFSSYWMSWVRQAPGKGLEWVANINEDGNEKYYVDSVKGRFTISRDNAKNSLFLQMNSLRAEDTAVYFCAREGGQWLALDHWGQGALVTVSS VL: DIQMTQSPSSVSASVGDRVTITCRASQGISSWLAWYQQKPGKAPKFLISGASSLQSGVPSRFSGSGSGTDFTLTISSLQPEDFATYYCQQANSFPWTFGQGTKVEFK | – | – | 0.16 | 6.7 | 0.00069 | 100000 |
| 75110_03D16A (antibody, V domains shown, Tested as non-clonal AlivaMab Mouse Kappa hybridoma supernatant, captured by anti-mouse IgG Fc sensor) VH: EVQLVESGGGLVQPGGSLRLSCAASGFTFSSYWMSWVRQAPGKGLEWVANINQDGGEKYYVDSVKGRFTISRDNAKNSLYLQMNSLRAEDTAVYYCVREGGQWLALDYWGQGTLVTVSS VL: DIQMTQSPSSVSASVGDRVTITCRASQGISSWLTWYQQKPGKAPKFLIYAASSLQSGVPSRFSGSGFGTDFTLTISSLQPEDFATYYCQQANSFPWTFGQGTKVEIK | – | – | 0.25 | 6 | 0.0013 | 220000 |
| 75110_01A06A (antibody, V domains shown, Tested as non-clonal AlivaMab Mouse Kappa hybridoma supernatant, captured by anti-mouse IgG Fc sensor) VH: EVQLVESGGGLVQPGGSLRLSCAASGFTFSSYWMSWVRQAPGKGLEWVANINEDGNEKYYVDSVKGRLTISRDNAKNSLYLQMNSLRAEDTAVYFCAREGGQWLSLDYWGQGALVTVSS VL: DIQMTQSPSSVSASVGDRVSITCRASQGISSWLAWYQQKPGKAPKILIYGASSLQSGVPSRFSGSGSGTDFTLTISSLQPEDFATYYCQQANSFPWTFGQGTKVEIK | – | – | 0.28 | 11 | 0.0013 | 120000 |
| 75110_02E08A (antibody, V domains shown, Tested as clonal hybridoma supernatant (AlivaMab Mouse Kappa; anti-mouse Fc detection)) VH: QVQLQESGPGLVKPSETLSLTCTVSGGSISTYYWTWIRQPAGKGLEWIGRVYTSGDTNYNPSLKSRVAMSLDTSKNQFSLKLSSVTAADTAVYYCARDSGALYSWNYGDAFDIWGQGTMVTVSS VL: DIQMTQSPSAMSASVGDRVTITCRASQDISNYLAWFQQKPGKVPKRLIYAASSLQSGVPSRFSGSGSGTEFTLTISSLQPEDFATYYCLQHNSYPRTFGQGTKVEIK | 35.4 | 115000 | – | – | – | – |
| 75110_14P05A (antibody, V domains shown, Tested as non-clonal AlivaMab Mouse Kappa hybridoma supernatant, captured by anti-mouse IgG Fc sensor) VH: EVQLVESGGGLVQPGGSLRLSCAASGFTFSSYDVHWVRQATGKGLEWVSTIGTAGDTYYPGSVKGRFTISRENAKNSLYLQMNSLRAGDTAVYYCARGGFYYYGMDVWGQGTTVTVSS VL: EIVLTQSPGTLSLSPGERATLSCRASQSVSSSYLAWYQQKPGQTPRLLIYGASSRATGIPDRFSGSGSGTDFTLTISRLEPEDFAVFYCQQSGSSPFTFGPGTKVDVK | – | – | 0.149 | 12.3 | 0.00185 | 150000 |
| 75110_01E08A (antibody, V domains shown, Tested as non-clonal AlivaMab Mouse Kappa hybridoma supernatant, captured by anti-mouse IgG Fc sensor) VH: EVQLVESGGGLVQPGGSLRLSCAASGFTFNNYDMHWVRQATGKGLEWVSTIGTAGDTYYPASVKGRFTIYRENAKNSLYLQMNSLRAGDTAVYYCARGGDYYYGMDVWGQGTTVTVSS VL: not shown | – | – | 0.1 | 10 | 0.0014 | 140000 |
| 75110_02E22A (antibody, V domains shown, Tested as clonal hybridoma supernatant (AlivaMab Mouse Kappa; anti-mouse Fc detection); also called Sib7.1) VH: QVQLQESGPGLVKPSETLSLTCTVSGGSISSFYWSWIRQPAGKGLEWIGRIYTSGSTNYNPSLKSRVTMSVDTSKNQFSLKLSSVTAADTAVYYCARELEKRNYYGMDVWGQGTTVTVSS VL: DIQMTQSPSSLSASVGDRVTITCQASHDISNYLNWYQQKPGKAPKLLIFDASTLETGVPSRFSGSGSGTYFTFTIRSLQPEDIATYYCQQYDSLPLTFGGGTKVEIK | 32.8 | 268000 | – | – | – | – |
| 75110_02I16A (antibody, V domains shown, Tested as clonal hybridoma supernatant (AlivaMab Mouse Kappa; anti-mouse Fc detection); also called 75110_02116A) VH: QVQLQQWGAGLLKPSETLSLTCDVYGGSFSGYYWTWIRQPPGKGLEWIGEINHSGTTNSNPSLKSRVTISVDTSKSQFSLRLSSVTAADTAVYFCTRELNWFDPWGQGTLVTVSS VL: DIQMTQSPSSVSASVGDRVTITCRASQDIANWLAWYQQKPGKAPQLLIYAASSLLGGVPSRFSGSGSGADFTLTISSLHPEDFATYYCQQANSFPYTFGQGTKLEIK | 36.1 | 145000 | – | – | – | – |

More lines, now with the values ahead:

| % CD4 Stain (human CD4) [%] | gMFI of CD4+ (human CD4) [gMFI] | Response [1] | Kd [2] [nM] | koff [2] [s⁻¹] | kon [2] [M⁻¹ s⁻¹] | Binder |
| --- | --- | --- | --- | --- | --- | --- |
| – | – | 0.23 | 6.3 | 0.0018 | 290000 | 75110_04K10A (antibody, V domains shown, Tested as non-clonal AlivaMab Mouse Kappa hybridoma supernatant, captured by anti-mouse IgG Fc sensor) VH: EVQLVESGGGLVQPGGSLRLSCAASGFTFSSYWMSWVRQAPGKGLEWVANINQDGSEKYYVDSVKGRFTISRDNAKNSLYLQLNSLRAEDTAMYYCAREGGQWLSLDYWGQGTLVTVSS VL: DIQMTQSPSSVSASVGDRVTITCRASQGISSWLAWYQQKPGKAPKVLIYGVSSFQSGVPSRFSGSGSGTDFILTISSLQPEDFATYYCQQANSFPWTFGQGTKVEIK |
| – | – | 0.2 | 3.1 | 0.00035 | 110000 | 75110_07H07A (antibody, V domains shown, Tested as non-clonal AlivaMab Mouse Kappa hybridoma supernatant, captured by anti-mouse IgG Fc sensor) VH: EVQVVESGGGLVQPGGSLRLSCAASGFTFSSYWMSWVRQAPGKGLEWVANIKEEGSEKYYVDSVKGRFTISRDNAKNSLYLQMNSLRAEDTAVYYCVREGGQWLALDYWGQGTLVTVSS VL: DIQMTQSPSSVSGSVGDRVTITCRASQGISSWLAWYQQKPGKAPKLLIFGASSLQSGVPSRFSGSGSGTDFTLTISSLQPEDFATYYCQQANSFPWTFGQGTKVQIK |
| – | – | 0.113 | 117 | 0.0065 | 55700 | 75110_10L22A (antibody, V domains shown, Tested as non-clonal AlivaMab Mouse Kappa hybridoma supernatant, captured by anti-mouse IgG Fc sensor) VH: EVQLVESGGGLVQPGGSLRLSCAASGFTFSSYDMHWVRQATGKGLEWVSTIGTAGDTYYPGSVKGRFTISRENAKNSLYLQMNGLRAGDTAVYYCARGNYFYYGVDVWGQGTTVTVSS VL: not shown |
| – | – | 0.0852 | < 0.001 | < 1e-07 | 42700 | 75110_14I16A (antibody, V domains shown, Tested as non-clonal AlivaMab Mouse Kappa hybridoma supernatant, captured by anti-mouse IgG Fc sensor) VH: QVQLQESGPGLVKPSETLSLTCTVSNGSISSYYWSWIRQSAGKGLEWIGRIYTSGSTNYNPSLKSRVTMLVDTSKNQFSLKLSSVTAADTAVYYCARDREDYYYYGMDVWGQGTTVTVSS VL: DIQMTQSPSSLSASVGDRVTITCQASHDISNYLNWYQQKPGKAPKLLLYYASNLETGVPSRFSGSGSGTDFTFTITSLQPEDIGTYSCQQYDNLPLTFGGGTKVEIK |
| – | – | 0.105 | 19.2 | 0.00274 | 143000 | 75110_14N19A (antibody, V domains shown, Tested as non-clonal AlivaMab Mouse Kappa hybridoma supernatant, captured by anti-mouse IgG Fc sensor) VH: QVQLQESGPGLVKPSETLSLTCTVSGGSISRYYWSWIRQPAGKGLEWIGRICTSENPNYNPALKSRVTMSVDTSKNQFSLKLSSVTAADTAVYYCARELERLNYYGMDVWGQGTTVTVSS VL: DIQMTQFPSSLSASVGDRVTITCQASQDISNYLNWYQQKPGKAPKLLIYDASNLESGVPSRFSGRGSGTDFTFTISSLQPEDFATFYCQQYDTLPITFGQGTRLEIK |

Reference: US20220112288A1 (published 2022)
